Assay results published in paper PMC5515408, “Sequence-specific DNA binding by MYC/MAX to low-affinity non-E-box motifs”.

What was measured:
MAX:MAX (p21) [1] = molecular target: T1, MAX:MAX (p21) (human, UniProt P61244-2 1-151); assay: competition; labeled CME probe; EMSA: 10 ul, 0.5 pmol probe, 80 ng poly(dA-dT):(dA-dT), 375 ng/ul BSA, 15 mM Tris-HCl pH 7.9, 100 mM KCl, 15% glycerol, 0.15 mM EDTA, 0.075% NP-40, 7.5 mM 2-mer; details: protein: recombinant; tags: 6xHis; chain copies: 2; annealed complementary oligos
MAX:MAX (p21) [2] = molecular target: T1, MAX:MAX (p21); assay: EMSA; EMSA: 10 ul, 0.5 pmol probe, 80 ng poly(dA-dT):(dA-dT), 375 ng/ul BSA, 15 mM Tris-HCl pH 7.9, 100 mM KCl, 15% glycerol, 0.15 mM EDTA, 0.075% NP-40, 7.5 mM 2-mer; details: protein: recombinant; tags: 6xHis; chain copies: 2; label: 32P (Klenow fill-in with [alpha-32P]dGTP) as probe; annealed complementary oligos; probe Klenow-filled
[3] = molecular target: T2, MYC (p64);MAX (p21), in MYC:MAX (human;human, UniProt P01106-1;P61244-2 1-439;1-151, |); assay: as above; details: protein: recombinant;recombinant; tags: 6xHis;6xHis; copies: 1;1; label: 32P (Klenow fill-in with [alpha-32P]dGTP) as probe; annealed complementary oligos; probe Klenow-filled
MAX:MAX (p21) [4] = molecular target: T1, MAX:MAX (p21); assay: competition; labeled CME probe; stronger than NE; EMSA: 10 ul, 0.5 pmol probe, 80 ng poly(dA-dT):(dA-dT), 375 ng/ul BSA, 15 mM Tris-HCl pH 7.9, 100 mM KCl, 15% glycerol, 0.15 mM EDTA, 0.075% NP-40, 7.5 mM 2-mer; details: protein: recombinant; tags: 6xHis; chain copies: 2; annealed complementary oligos
MAX:MAX (p21) [5] = molecular target: T1, MAX:MAX (p21); assay: EMSA competition; EMSA: 10 ul, 0.5 pmol probe, 80 ng poly(dA-dT):(dA-dT), 375 ng/ul BSA, 15 mM Tris-HCl pH 7.9, 100 mM KCl, 15% glycerol, 0.15 mM EDTA, 0.075% NP-40, 7.5 mM 2-mer; details: protein: recombinant; tags: 6xHis; chain copies: 2; label: 32P (Klenow fill-in with [alpha-32P]dGTP) as probe; annealed complementary oligos; probe Klenow-filled
[6] = molecular target: T2, MYC (p64);MAX (p21), in MYC:MAX; assay: as above; details: protein: recombinant;recombinant; tags: 6xHis;6xHis; copies: 1;1; label: 32P (Klenow fill-in with [alpha-32P]dGTP) as probe; annealed complementary oligos; probe Klenow-filled

T2 sequence (P01106 16-454, chain 1 of 2): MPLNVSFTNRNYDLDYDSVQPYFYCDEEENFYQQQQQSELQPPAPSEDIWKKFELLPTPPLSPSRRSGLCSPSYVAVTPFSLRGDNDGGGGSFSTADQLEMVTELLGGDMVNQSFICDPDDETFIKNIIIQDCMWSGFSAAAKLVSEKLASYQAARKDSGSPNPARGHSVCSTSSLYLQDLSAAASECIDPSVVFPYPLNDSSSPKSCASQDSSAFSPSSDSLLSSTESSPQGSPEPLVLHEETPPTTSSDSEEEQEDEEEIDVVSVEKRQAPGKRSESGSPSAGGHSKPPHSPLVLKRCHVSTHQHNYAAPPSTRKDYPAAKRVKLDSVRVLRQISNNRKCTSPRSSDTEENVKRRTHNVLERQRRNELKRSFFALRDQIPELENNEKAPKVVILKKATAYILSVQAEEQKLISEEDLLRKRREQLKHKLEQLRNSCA
T2 sequence (P61244 other isoform, or with tags, fused parts or gaps |, chain 2 of 2): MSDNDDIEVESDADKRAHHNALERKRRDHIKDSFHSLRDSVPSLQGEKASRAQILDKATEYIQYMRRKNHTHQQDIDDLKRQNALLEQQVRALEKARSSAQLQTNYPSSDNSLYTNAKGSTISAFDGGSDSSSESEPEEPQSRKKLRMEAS
T1 sequence (P61244 other isoform, or with tags, fused parts or gaps): as the sequence (P61244 other isoform, or with tags, fused parts or gaps |, chain 2 of 2) above

B1: NE-V3 (dsDNA)
DNA 1: CCGGCTGATACGTAGTATTAATAG
DNA 2: CTATTAATACTACGTATCAGCCGG
binding result (MAX:MAX (p21) [1]): no binding

B2: CME (dsDNA)
DNA 1: CCGGCTGACACGTGGTATTAATAG
DNA 2: CTATTAATACCACGTGTCAGCCGG
binding result (MAX:MAX (p21) [2]): binds | binding result [3]: binds

B3: E-V1 (dsDNA)
DNA 1: CCGGCTGACACGTTGTATTAATAG
DNA 2: CTATTAATACAACGTGTCAGCCGG
binding result (MAX:MAX (p21) [4]): binds

B4: NE-V1 (dsDNA)
DNA 1: CCGGCTGATACGTTGTATTAATAG
DNA 2: CTATTAATACAACGTATCAGCCGG
binding result (MAX:MAX (p21) [1]): no binding

B5: NE-V4 (dsDNA)
DNA 1: CCGGCTGAAAGCTTGTATTAATAG
DNA 2: CTATTAATACAAGCTTTCAGCCGG
binding result (MAX:MAX (p21) [1]): no binding

B6: Ctrl (dsDNA)
DNA 1: CCGGCTGATTAGCAGTATTAATAG
DNA 2: CTATTAATACTGCTAATCAGCCGG
binding result (MAX:MAX (p21) [2]): no binding | binding result [3]: no binding

B7: NE (dsDNA)
DNA 1: CCGGCTGAAACGTTGTATTAATAG
DNA 2: CTATTAATACAACGTTTCAGCCGG
binding signal (MAX:MAX (p21) [5]): ~33 fold lower affinity than CME | binding signal [6]: ~20 fold lower affinity than CME

B8: NE-V2 (dsDNA)
DNA 1: CCGGCTGAGACGTTGTATTAATAG
DNA 2: CTATTAATACAACGTCTCAGCCGG
binding result (MAX:MAX (p21) [1]): no binding
